B1: 2.1 A (antibody, human IgG1, kappa)
heavy: not shown
light: DVLMTQSPLSLPVTLGQPASISCRSSQSIVHSNGNTYLEWYLQRPGQSPKLLIYKVSNRFSGVPDRFSGSGSGTDFTLKISRVEAEDVGVYYCFQGSHVPLTFGAGTKLEIKRTVAAPSVFIFPPSDEQLKSGTASVVCLLNNFYPREAKVQWKVDNALQSGNSQESVTEQDSKDSTYSLSSTLTLSKADYEKHKVYACEVTHQGLSSPVTKSFNRGEC
notes: Humanized IgG
B2: 2.1 N (antibody, human IgG1, kappa, V domains shown)
VH: QVTLKESGPALVKPTQTLTLTCTFSGFSLRTSGMGVGWIRQPPGKGLEWLAHIWWDDDKSYNPSLKSQLTISKDTSKNQVVLTMTNMDPVDTATYYCARRNYYYDDYFAYWGQGTTLTVSS
VL: DVVMTQSPLSLPVTLGQPASISCRSSQSIVHSNGNTYLEWFQQRPGQSPRRLIYKVSNRFSGVPDRFSGSGSGTDFTLKISRVEAEDVGVYYCFQGSHVPLTFGQGTKLEIKR
notes: Humanized IgG
B3: murine monoclonal anti-amyloid antibody 2.1 (antibody, mouse IgG1, kappa, V domains shown)
VH: QVTLKESGPGILKPSQTLSLTCSFSGFSLRTSGMGVGWIRQPSGKGLEWLAHIWWDDDKSYNPSLKSQLTISKDTSRNQVFLKITSVDTADTATYYCARRNYYYDDYFAYWGQGTTLTVSS
VL: DVLMTQTPLSLPVSLGDQASISCRSSQSIVHSNGNTYLEWYLQKPGQSPKLLIYKVSNRFSGVPDRFSGSGSGTDFTLKISRVEAEDLGVYYCFQGSHVPLTFGAGTKLELKR
notes: also called mAb 2.1; 2.1 murine

How the values were obtained:
[1] = target: T1, human Aβ40 fibrils (human, UniProt P05067 672-711); assay: ELISA on plate-dried fibrils, time-resolved europium fluorescence
T1 construct: domain: Aβ40; Aggregated (fibrillar) form; also called Fibrillar Aβ40; Aβ40 aggregate
T1 sequence (P05067 672-711 limits assumed): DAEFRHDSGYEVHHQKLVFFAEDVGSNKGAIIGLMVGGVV
Procedure: (§1) The fibrils (Aβ or collagen) were diluted to 10 μg/ml in water and mixed thoroughly. The solution was aliquoted into the wells of a microtiter plate (Immulon-2; VWR; Cat # 62404-972) at 50 μl per well (resulting in 0.5 μg fibrils/well final). The plate was dried overnight by being placed uncovered in a 37° C. incubator.
(§2) The wells were blocked with 200 μl of blocking solution and incubated for ≧1 hour at room temperature (RT) with shaking. The blocking solution was flicked out and gently dried on a paper towel. 100 μl of primary antibody diluted in PBS containing 10% blocking solution was added to each well and the plate was incubated at RT for 1 hour with shaking. The plate was washed with 5-10× in TBS, pH 7.5+0.05% Tween 20. 100 μl of secondary antibodies (each diluted 1-2,000-fold in PBS) was added to each well and the plate was incubate at RT for 1 hour with shaking. The plate was washed with 5-10× in TBS, pH 7.5+0.05% Tween 20. 100 μl Streptavidin-Europium reagent (1-1,000-fold dilution) was added and the plated was incubated at RT for 45 minutes with shaking. The plate was washed 5-10× in TBS, pH 7.5+0.05% Tween 20. 120 μl Enhance Solution was added and the plate was incubated at RT for 15-30 minutes with shaking. The plate was read on a Victor TRF plate reader (Europium program).

[2] = target: T2, human Aβ42 fibrils (human, UniProt P05067 672-713); assay: as above
T2 construct: domain: Aβ42; Aggregated (fibrillar) form; also called Fibrillar Aβ42; Aβ42 aggregate
T2 sequence (P05067 672-713 limits assumed): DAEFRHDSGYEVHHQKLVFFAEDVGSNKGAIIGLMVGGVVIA
Procedure: as §1, §2

[3] = target: T3, native amyloid plaques in unfixed brain sections of Tg2576 APP transgenic mice (human, UniProt P05067 672-713, limits assumed); assay: cell-based or functional assay
T3 sequence (P05067 672-713 limits assumed): as above

[4] = target: T1, human Aβ40 fibrils; assay: BIAcore, antibody injected over immobilized Aβ fibrils
Procedure: (§3) Preparation of BIacore Chip Surfaces: Immobilization of Proteins to a Biacore sensor chip (CM5) was performed according to manufacturer's instructions. Briefly, carboxyl groups on the sensor chip surfaces were activated by injecting 60 μL of a mixture containing 0.2 M N-ethyl-N′-(dimethylaminopropyl)carbodiimide (EDC) and 0.05 M N-hydroxysuccinimide (NHS). Specific surfaces were obtained by injecting rProtein G (Pierce), goat anti-mouse Fc (Jackson Immuno Research Lab) or Aβ aggregates diluted in 10 mM acetate, pH 4.0 at concentrations between 5 and 20 μg/mL. Excess reactive groups on the surfaces were deactivated by injecting 60 μL of 1 M ethanolamine. Final immobilized levels were about 10000 resonance units (RU) for the Protein G and anti-mouse Fc surfaces, and 400 RU for the Aβ aggregates surfaces. A blank, mock-coupled reference surface was also prepared on the sensor chips for background subtraction.
(§4) Kinetic analysis of antibodies binding to immobilized Aβ aggregates: Antibodies were diluted in PBS+0.005% P-20+0.1 mg/mL BSA from 100 nM to 0.2 nM. The samples at each concentration were injected over the immobilized Aβ aggregate surfaces, as well as over a blank surface for background subtraction. After a 15-minute dissociation, the surface was regenerated by injecting 8 mM glycine, pH 3.0, and 1 M NaCl for 30 seconds.
(§5) The kinetic analysis assay as described above was repeated using various humanized versions of anti-Aβ antibodies (2.1 chimera, 2.1 B, 2.1 C, 2.1 D, 2.1 E, 2.1 F, 2.1 G, 2.1 E.K5, 2.1E.K5R, 2.1 G.K5, 2.1 G.K5R, 2.1 I.K5R and 2.1 L).

[5] = target: T2, human Aβ42 fibrils; assay: as above
Procedure: as §3, §4, §5

[6] = target: T4, human Aβ42 monomer (human, UniProt P05067 672-713); assay: BIAcore, antibody captured on protein G or anti-mouse Fc, Aβ monomer injected
T4 construct: domain: Aβ42; Monomeric form
T4 sequence (P05067 672-713 limits assumed): as above
Procedure: as §3
(§6) Kinetic analysis of Aβ monomers binding to protein G captured antibodies: The kinetic analysis of the interaction between Aβ monomers and antibodies was performed as follows: 2.1A and mAb 2.1 were diluted in PBS+0.005% P-20+0.1 mg/mL BSA and injected over the immobilized protein G or anti-mouse Fc surfaces. Aβ monomers were diluted in PBS+0.005% P-20+0.1 mg/mL BSA from 1000 nM to 2 nM, and each concentration was injected over the captured antibody surfaces. After 3 minutes dissociation, each surface was regenerated by injection of 10 mM glycine, pH 1.5.

[7] = target: T5, human Aβ40 monomer (human, UniProt P05067 672-711); assay: as above
T5 construct: domain: Aβ40; Monomeric form
T5 sequence (P05067 672-711 limits assumed): as the sequence (P05067 672-711 limits assumed) above
Procedure: as §3, §6

[8] = target: T4, human Aβ42 monomer; assay: ELISA on plate-coated monomer, time-resolved europium fluorescence
Procedure: (§7) The same techniques were used for the coating of the microtiter plate for monomer ELISA. The fibrils Aβ monomer were diluted to 2.5 μg/ml in Coating buffer and mixed thoroughly. The solution was aliquoted into the wells of a microtiter plate [Immulon-2; VWR; Cat.#62404-972] at 100 μl per well. The plate was sealed and incubated overnight at 4° C. The plate was washed 5-10× to remove Aβ coating solution prior to starting the assay.
as §2

[9] = target: T5, human Aβ40 monomer; assay: as above
Procedure: as §7, §2

[10] = target: T1, human Aβ40 fibrils; assay: BIAcore, antibody injected over immobilized Aβ aggregates
Procedure: as §3, §4

[11] = target: T2, human Aβ42 fibrils; assay: as above
Procedure: as §3, §4

[12] = target: amyloid plaques in unfixed brain sections of a human AD patient (human, UniProt P05067 672-713); assay: cell-based or functional assay
Chain of amyloid plaques in unfixed brain sections of a human AD patient (P05067 672-713): as the sequence (P05067 672-713 limits assumed) above

[13] = target: T3, native amyloid plaques in unfixed brain …; assay: immunohistochemistry on unfixed Tg2576 mouse brain sections
[14] = target: T3, native amyloid plaques in unfixed brain …; assay: cell-based or functional assay; remark: listed apart in the source

| Binder | EC50 [1] [nM] | EC50 [2] [nM] | EC50 (µg/ml), ex vivo phagocytosis [3] [µg/mL] | koff [4] [s⁻¹] | koff [5] [s⁻¹] | Kd [6] [nM] | koff [6] [s⁻¹] | kon [6] [M⁻¹ s⁻¹] | Kd [7] [nM] | koff [7] [s⁻¹] | kon [7] [M⁻¹ s⁻¹] | EC50 [8] [nM] | EC50 [9] [nM] | koff [10] [s⁻¹] | koff [11] [s⁻¹] | EC50 of phagocytosis by IC-21 cells on human AD brain sections [12] [mg/L] | binding result [13] | EC50 of antibody induced phagocytosis of amyloid [14] [mg/L] |
| --- | --- | --- | --- | --- | --- | --- | --- | --- | --- | --- | --- | --- | --- | --- | --- | --- | --- | --- |
| B1 | 0.065 | 0.074 | 0.83 | < 5e-05 | < 5e-05 | 50 | 0.0049 | 98000 | 68 | 0.0094 | 140000 | 0.031 | 0.029 | < 5e-05 | < 5e-05 | 0.72 | – | – |
| B2 | – | – | – | – | – | – | – | – | – | – | – | – | – | – | – | – | no binding (tested: 1 µg/ml) | – |
| B3 | – | – | – | – | – | 17 | 0.00072 | 42000 | 42 | 0.0041 | 98000 | – | – | < 5e-05 | < 5e-05 | – | – | 0.4 |
